# Data from patent EP4745156A1.
# Substitutions are numbered along the chain they refer to.
# B1: 7475-mHvKv-canIgGB (antibody, V domains shown)
# VH: EVKLVESGEGLVKPGGSLKLSCAASGFTFSSYAMSWVRQTPEKRLEWVAYISNGGDYIFYADTVKGRFTISRDNARNTLYLQMSSLKSEDTAMYYCTRRGHYNTSSYWYFDVWGTGTTVTVSS
# VL: DIVMTQSPKSMSMSVGERVTLSCKASENVGTYVSWYQQKPEQSPKLLIYGASNRYTGVPDRFTGSGSATDFTLTISSVQAEDLADYHCGQSYSYPPTFGAGTKLELKR
# B2: 6465-H3K3-canIgGB (antibody, V domains shown)
# VH: EVQLVESGGDLVKPGGSLRLSCVASGYSFTNYYLYWVRQAPGKGLEWVAELNPRNGGTNLNAKFKTRFTISRDNAKNMAYLQMNSLRAEDTAVYYCTRGGTTVVVRDVMDFWGQGTLVTVSS
# VL: DIVMTQTPLSLSVSPGEPASISCRASESVDSYGNSFMHWYRQKPGQSPQLLIYRASNLESGVPDRFSGSGSGTDFTLRISRVEADDAGVYYCQQSNEDPYTFGQGTKLEIKR
# B3: 6465-H1K1-canIgGB (antibody, V domains shown)
# VH: B2 VH with A49G, R72V, N74K
# VL: EIVLTQTPLSLAVTPGELATISCRASESVDSYGNSFMHWYLQKPGQTPRLLIYRASNLESGVSDRFSGSGSRTDFTLKISRVEAEDVGVYYCQQSNEDPYTFGQGTKLEIKR
# B4: B2-mHvKv-canIgGB (antibody, V domains shown)
# VH: EVKLVESGGGLVQPGGSMKLSCAASGFTFSDAWMDWVRQSPERGLEWVAEIRSRAESHATYYAESVKGRFTISRDDSKGSVYLQMNSLGTEDTGIYYCTPASTMITTGWFAYWGQGTMVTVSS
# VL: NIVMTQSPAILSVTPGDRVSLSCRASQNISVYLHWYQQKSHDSPRVLIKYVSQSISGIPSRFSGSGSGSDFTLRINSVEPEDVGVYYCQNGHSFPYTFGGGTKLEIKR
# B5: 7475-H1K1-canIgGB (antibody, V domains shown)
# VH: EVQLVESGGDLVKPGGSLRLSCVASGFTFSSYAMSWVRQAPGKGLQWVAYISNGGDYIFYADTVKGRFTISRDNARNTLYLQMNSLRSEDTAVYYCTRRGHYNTSSYWYFDVWGQGTLVTVSS
# VL: EIVMTQSPASLSLSQEEKVTITCKASENVGTYVSWYQQKPGQAPKLLIYGASNRYTGVPSRFSGSGSGTDFTFTISSLEPEDVAVYYCGQSYSYPPTFGAGTKVELKR
# B6: 7475-H1K3-canIgGB (antibody, V domains shown)
# VH: B5 VH
# VL: B5 VL with T72S
# B7: 7475-H2K2-canIgGB (antibody, V domains shown)
# VH: B5 VH with V37I, R76K, S88A
# VL: B5 VL with G68A, F73L, L78V
# B8: 7475-H2K3-canIgGB (antibody, V domains shown)
# VH: B5 VH with V37I, R76K, S88A
# VL: B5 VL with T72S
# B9: 7475-H3K2-canIgGB (antibody, V domains shown)
# VH: B5 VH with Y50R, R76K, S88A, V93M
# VL: B5 VL with G68A, F73L, L78V
# B10: 7475-H2K1-canIgGB (antibody, V domains shown)
# VH: B5 VH with V37I, R76K, S88A
# VL: B5 VL
# B11: 7475-H3K3-canIgGB (antibody, V domains shown)
# VH: B5 VH with Y50R, R76K, S88A, V93M
# VL: B5 VL with T72S
# B12: 7475-H3K1-canIgGB (antibody, V domains shown)
# VH: B5 VH with Y50R, R76K, S88A, V93M
# VL: B5 VL
# B13: 7475-H1K2-canIgGB (antibody, V domains shown)
# VH: B5 VH
# VL: B5 VL with G68A, F73L, L78V
# B14: B2-H1K1-canIgGB (antibody, V domains shown)
# VH: EVQLVESGGDLVKPGGSLRLSCVASGFTFSDAWMDWVRQAPGKGLQWLAEIRSRAESHATYYAESVKGRFTISRDDAKNTVYLQMNSLRAEDTAVYYCTPASTMITTGWFAYWGQGTLVTVSS
# VL: EIVMTQTPLSLAVTPGELATISCRASQNISVYLHWYLQKPGQTPRVLIKYVSQSISGVSDRFSGSGSGSDFTLKISRVEAEDVGVYYCQNGHSFPYTFGQGTKLEIKR
# B15: B2-H1K2-canIgGB (antibody, V domains shown)
# VH: B14 VH
# VL: DIVMTQTPLSLSVSPGETASISCRASQNISVYLHWYRQKPGQSPQVLIKYVSQSISGVPDRFSGSGSGSDFTLRISRVEADDTGVYYCQNGHSFPYTFGQGTKLEIKR
# B16: B2-H2K1-canIgGB (antibody, V domains shown)
# VH: B14 VH with Q46E, L48V, T80M
# VL: B14 VL
# B17: B2-H3K1-canIgGB (antibody, V domains shown)
# VH: B14 VH with L48V
# VL: B14 VL
# B18: 6465-mHvKv-canIgGB (antibody, V domains shown)
# VH: EVQLQQSGAELVRPGASVRLSCKASGYSFTNYYLYWVKQRPGQGLEWIGELNPRNGGTNLNAKFKTKATLTVDKSSNTAYMRLSSLTSEDSAVYYCTRGGTTVVVRDVMDFWGQGTSVTVSS
# VL: DIELTQSPASLAVSLGQRATISCRASESVDSYGNSFMHWYQQKPGQPPKLLIYRASNLESGIPARFSGSGSRTDFTLTINPVEADDVATYYCQQSNEDPYTFGGGTKLEIKR
# Target: His-tagged canine IL-31 (interleukin 31) recombinant protein (canine)
# Assay: BLI (Gator), biotinylated antibody on streptavidin probe, canine IL-31 as analyte
Kd [nM],koff [s⁻¹],kon [M⁻¹ s⁻¹],Binder
1.01,0.000251,250000,B1
2.02,0.00164,812000,B2
3.21,0.000979,305000,B3
3.04,0.000243,79900,B4
6.73,0.00156,231000,B5
6.51,0.00192,295000,B6
3.61,0.000481,133000,B7
4.67,0.000759,162000,B8
5.4,0.000539,100000,B9
5.43,0.00055,101000,B10
3.34,0.00204,611000,B11
4.84,0.000542,112000,B12
6.37,0.000614,96500,B13
17.2,0.0013,75600,B14
13.8,0.00115,82800,B15
10,0.000942,93800,B16
10.2,0.00114,112000,B17
2.09,0.00106,507000,B18

# Target: His-tagged canine IL-31 (interleukin 31) recombinant protein (canine)
# Assay: cell-based or functional assay
row,pSTAT IC50 (µg/mL),Binder
1,6.7,B1
2,7.2,B2
3,7.5,B3
4,6.8,B4
5,8.4,B5
6,8.2,B6
7,7.1,B7
8,7.2,B8
9,7.8,B9
10,7.9,B10
11,6.9,B11
12,7.5,B12
13,8.1,B13
14,9.4,B14
15,9.2,B15
16,8.3,B16
17,8.5,B17
18,7.1,B18
